Assay results from patent US8936785 (ESBATECH AN ALCON BIOMEDICAL RESEARCH UNIT, dated 2015).
Positions count from the first letter of the chain named.

B1: TB-H_F68V_F70L (scFv)
scFv: DIVMTQSPSSLSASVGDRVTLTCTASQSVSNDVVWYQQRPGKAPKLLIYSAFNRYTGVPSRFSGRGYGTDFTLTISSLQPEDVAVYYCQQDYNSPRTFGQGTKLEVKRGGGGSGGGGSGGGGSSGGGSQVQLVQSGAEVKKPGASVKVSCTASGYTFTHYGMNWVRQAPGKGLEWMGWINTYTGEPTYADKFKDRVTLSLETSASTVYMELTSLTSDDTAVYYCARERGDAMDYWGQGTLVTVSS
B2: TB-H_F70L (scFv)
scFv: B1 scFv with V196F

Target: TNFα (tumour necrosis factor alpha) (UniProt P01375 77-233, limits assumed)
Assay: cell-based or functional assay

Sequence of TNFα (tumour necrosis factor alpha) (P01375 77-233 limits assumed): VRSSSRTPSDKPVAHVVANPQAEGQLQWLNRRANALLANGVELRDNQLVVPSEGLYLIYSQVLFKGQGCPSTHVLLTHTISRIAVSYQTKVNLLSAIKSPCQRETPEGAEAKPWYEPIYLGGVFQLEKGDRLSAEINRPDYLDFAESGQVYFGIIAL

Binder | Relative potency: EC50X/EC50ESBA105, L929 cells [ratio EC50X/EC50ESBA105]
B1 | 1.28
B2 | 2.7
